This note sets out measurements from PMC9636267 (2022).

Assay in all cases: SPR
In assay [1] the target is T1, HCoV-229E S1 subunit (17–560 aa) (human coronavirus 229E, UniProt P15423 17-560).
T1 chain: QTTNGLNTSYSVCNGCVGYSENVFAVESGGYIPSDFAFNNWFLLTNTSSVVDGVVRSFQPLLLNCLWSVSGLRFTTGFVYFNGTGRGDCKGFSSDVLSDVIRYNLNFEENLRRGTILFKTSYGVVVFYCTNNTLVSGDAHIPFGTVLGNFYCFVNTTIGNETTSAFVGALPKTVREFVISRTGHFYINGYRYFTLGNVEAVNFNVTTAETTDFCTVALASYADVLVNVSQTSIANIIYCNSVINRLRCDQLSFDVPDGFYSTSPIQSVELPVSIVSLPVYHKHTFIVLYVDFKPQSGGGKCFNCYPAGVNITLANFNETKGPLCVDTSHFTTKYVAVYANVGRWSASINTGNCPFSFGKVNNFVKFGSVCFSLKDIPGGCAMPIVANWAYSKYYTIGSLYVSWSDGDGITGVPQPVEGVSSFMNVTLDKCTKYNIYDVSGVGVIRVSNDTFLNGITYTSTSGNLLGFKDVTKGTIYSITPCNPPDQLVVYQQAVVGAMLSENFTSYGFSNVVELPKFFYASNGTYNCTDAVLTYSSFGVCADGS

Assay [2] concerns the target T2, HCoV-229E S ectodomain (17–1115 aa), 229E S trimer (human coronavirus 229E, UniProt P15423 17-1115).
T2 chain: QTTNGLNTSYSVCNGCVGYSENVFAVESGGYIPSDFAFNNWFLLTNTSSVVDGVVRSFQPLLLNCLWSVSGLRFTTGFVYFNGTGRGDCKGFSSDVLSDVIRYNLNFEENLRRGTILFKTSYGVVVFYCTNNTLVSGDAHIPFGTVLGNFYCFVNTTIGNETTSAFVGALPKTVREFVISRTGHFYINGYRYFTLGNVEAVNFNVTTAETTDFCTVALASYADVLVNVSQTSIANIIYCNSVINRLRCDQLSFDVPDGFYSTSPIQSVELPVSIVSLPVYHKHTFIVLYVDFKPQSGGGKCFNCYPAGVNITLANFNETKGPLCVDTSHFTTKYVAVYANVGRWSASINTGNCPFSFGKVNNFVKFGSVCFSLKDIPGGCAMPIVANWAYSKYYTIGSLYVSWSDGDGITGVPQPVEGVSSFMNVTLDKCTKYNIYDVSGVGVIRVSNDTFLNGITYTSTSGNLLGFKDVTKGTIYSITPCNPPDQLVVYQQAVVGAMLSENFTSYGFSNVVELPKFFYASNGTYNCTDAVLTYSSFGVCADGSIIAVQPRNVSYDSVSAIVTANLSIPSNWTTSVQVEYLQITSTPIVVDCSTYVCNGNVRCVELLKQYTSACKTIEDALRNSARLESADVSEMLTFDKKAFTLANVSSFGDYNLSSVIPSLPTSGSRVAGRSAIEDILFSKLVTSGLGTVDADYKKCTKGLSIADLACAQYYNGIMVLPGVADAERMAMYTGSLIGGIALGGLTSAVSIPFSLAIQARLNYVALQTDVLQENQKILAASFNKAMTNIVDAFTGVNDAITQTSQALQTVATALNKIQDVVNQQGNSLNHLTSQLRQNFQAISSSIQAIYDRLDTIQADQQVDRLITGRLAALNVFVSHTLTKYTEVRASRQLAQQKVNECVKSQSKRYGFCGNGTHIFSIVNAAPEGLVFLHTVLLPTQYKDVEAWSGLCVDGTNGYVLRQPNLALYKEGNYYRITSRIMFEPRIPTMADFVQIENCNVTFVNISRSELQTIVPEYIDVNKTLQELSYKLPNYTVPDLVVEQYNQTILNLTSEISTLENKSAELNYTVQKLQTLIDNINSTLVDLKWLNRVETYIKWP

The target of assay [3] is T3, HCoV-229E RBD (294–435 aa) (human coronavirus 229E, UniProt P15423 294-435).
T3 chain: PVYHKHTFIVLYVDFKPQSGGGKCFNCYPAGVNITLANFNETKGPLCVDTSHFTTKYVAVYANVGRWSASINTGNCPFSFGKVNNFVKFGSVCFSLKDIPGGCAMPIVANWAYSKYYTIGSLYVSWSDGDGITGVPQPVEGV

Assay [4] has as its target T2, HCoV-229E S ectodomain (17–1115 aa), ….
The target in assay [5] is T1, HCoV-229E S1 subunit (17–560 aa).
Assay [6] concerns the target T3, HCoV-229E RBD (294–435 aa).

B1: Fab C04 (Fab, V domains shown)
VH: EVQLVESGGGLVQPGGSLRLSCAASGFNISSSYIHWVRQAPGKGLEWVASIYSSYGYTYYADSVKGRFTISADTSKNTAYLQMNSLRAEDTAVYYCARWWASVGGAGGGLDYWGQGTLVTVSS
VL: DIQMTQSPSSLSASVGDRVTITCRASQSVSSAVAWYQQKPGKAPKLLIYSASSLYSGVPSRFSGSRSGTDFTLTISSLQPEDFATYYCQQGYGWLITFGQGTKVEIK
With B1, the values for the Kd in assay [1], in assay [2] and in assay [3] were 7.3 nM, 4.4 nM and 2.9 nM, respectively. Further, the koff in assay [4] was determined as 0.0064 s⁻¹; in assay [5] it was 0.007 s⁻¹; in assay [6], 0.0055 s⁻¹.
